Source: the supplement of paper PMC6757056
± gives the standard deviation of the averaged measurements.

B1: library; a variant is named by its letters at N, in order (parent)
chain: GCUGUCACCGGUGCUUGGUACGUUAUAUUCAGCCGGUCUGAUGAGUCUNNNNNNAGACGAAACAGC

Tests used:
(6R,S)-folinic acid [1] = variants of: B1; test: normalized RNA/DNA level without ligand (relative to sTRSVctl = 100) (log10 (% of sTRSVctl)); HEK293T overexpressing SLC46A1; higher = less ribozyme self-cleavage, higher mRNA level; conditions: without (6R,S)-folinic acid; ligand present: no
Summary of the method: (§1)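 Ribozyme switch library plasmids linked to reporters were introduced into HEK293T cells at 4 µg per 6-well well, with ligand, if any, added 1 h before. Total RNA was extracted with EDTA 72 h later, reverse-transcribed, amplified, barcoded and sequenced. RNA level was computed from RNA over DNA reads relative to a spiked-in non-cleaving sequence or the top sequences, then scaled and log-transformed. The top set was 25 sequences, values were ×100 and log10, and the cutoff was ≥100 DNA reads.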

(6R,S)-folinic acid [2] = variants of: B1; test: normalized RNA/DNA level with ligand (relative to sTRSVctl = 100) (log10 (% of sTRSVctl)); HEK293T overexpressing SLC46A1; ligand concentration (+) RNA-Seq: 6 mM; higher = less ribozyme self-cleavage, higher mRNA level; conditions: with (6R,S)-folinic acid; ligand present: yes
Summary of the method: as §1

Row | Variant | normalized RNA/DNA level without ligand (log10) ((6R,S)-folinic acid [1]) | normalized RNA/DNA level with ligand (log10) ((6R,S)-folinic acid [2])
1 | GCUGUCACCGGUGCUUGGUACGUUAUAUUCAGCCGGUCUGAUGAGUCUACCGGGAGACGAAACAGC | 2.068 ± 0.0057 | 2.06 ± 0.053
2 | GCUGUCACCGGUGCUUGGUACGUUAUAUUCAGCCGGUCUGAUGAGUCUGCCGGUAGACGAAACAGC | 2.067 ± 0.01 | 2.03 ± 0.034
3 | GCUGUCACCGGUGCUUGGUACGUUAUAUUCAGCCGGUCUGAUGAGUCUUCCGGUAGACGAAACAGC | 2.032 ± 0.019 | 2.02 ± 0.052
4 | GCUGUCACCGGUGCUUGGUACGUUAUAUUCAGCCGGUCUGAUGAGUCUACCGGUAGACGAAACAGC | 2.068 ± 0.0071 | 2.052 ± 0.015
5 | GCUGUCACCGGUGCUUGGUACGUUAUAUUCAGCCGGUCUGAUGAGUCUCCCGUAAGACGAAACAGC | 2.062 ± 0.016 | 2.07 ± 0.055
6 | GCUGUCACCGGUGCUUGGUACGUUAUAUUCAGCCGGUCUGAUGAGUCUGCCGUAAGACGAAACAGC | 2.002 ± 0.0022 | 2.02 ± 0.05
7 | GCUGUCACCGGUGCUUGGUACGUUAUAUUCAGCCGGUCUGAUGAGUCUUCCGUAAGACGAAACAGC | 1.96 ± 0.029 | 2.004 ± 0.0049
8 | GCUGUCACCGGUGCUUGGUACGUUAUAUUCAGCCGGUCUGAUGAGUCUACCGUAAGACGAAACAGC | 1.969 ± 0.0072 | 2.01 ± 0.048
9 | GCUGUCACCGGUGCUUGGUACGUUAUAUUCAGCCGGUCUGAUGAGUCUCCCGUCAGACGAAACAGC | 2.05 ± 0.056 | 2.03 ± 0.065
10 | GCUGUCACCGGUGCUUGGUACGUUAUAUUCAGCCGGUCUGAUGAGUCUGCCGUCAGACGAAACAGC | 2.08 ± 0.031 | 2.081 ± 0.0053
11 | GCUGUCACCGGUGCUUGGUACGUUAUAUUCAGCCGGUCUGAUGAGUCUUCCGUCAGACGAAACAGC | 2.1142 ± 0.002 | 2.0759 ± 0.0012
12 | GCUGUCACCGGUGCUUGGUACGUUAUAUUCAGCCGGUCUGAUGAGUCUACCGUCAGACGAAACAGC | 2.1 ± 0.03 | 2.07 ± 0.037
13 | GCUGUCACCGGUGCUUGGUACGUUAUAUUCAGCCGGUCUGAUGAGUCUCCCGUGAGACGAAACAGC | 2.018 ± 0.016 | 2.012 ± 0.014
14 | GCUGUCACCGGUGCUUGGUACGUUAUAUUCAGCCGGUCUGAUGAGUCUGCCGUGAGACGAAACAGC | 1.994 ± 0.012 | 2.033 ± 0.018
15 | GCUGUCACCGGUGCUUGGUACGUUAUAUUCAGCCGGUCUGAUGAGUCUACCGUGAGACGAAACAGC | 1.92 ± 0.02 | 2.007 ± 0.015
16 | GCUGUCACCGGUGCUUGGUACGUUAUAUUCAGCCGGUCUGAUGAGUCUCCCGUUAGACGAAACAGC | 2.057 ± 0.011 | 2.04 ± 0.023
17 | GCUGUCACCGGUGCUUGGUACGUUAUAUUCAGCCGGUCUGAUGAGUCUGCCGUUAGACGAAACAGC | 2.067 ± 0.017 | 2.04 ± 0.006
18 | GCUGUCACCGGUGCUUGGUACGUUAUAUUCAGCCGGUCUGAUGAGUCUUCCGUUAGACGAAACAGC | 2.049 ± 0.0025 | 2.05 ± 0.068
19 | GCUGUCACCGGUGCUUGGUACGUUAUAUUCAGCCGGUCUGAUGAGUCUCCCUAAAGACGAAACAGC | 2.0445 ± 0.00066 | 2.039 ± 0.015
20 | GCUGUCACCGGUGCUUGGUACGUUAUAUUCAGCCGGUCUGAUGAGUCUGCCUAAAGACGAAACAGC | 2.006 ± 0.019 | 2.022 ± 0.012
21 | GCUGUCACCGGUGCUUGGUACGUUAUAUUCAGCCGGUCUGAUGAGUCUUCCUAAAGACGAAACAGC | 1.981 ± 0.0064 | 2.018 ± 0.014
